Assay [1] deals with T1, GST-Vps10 (Vps10 subdomain of T. gondii sortilin) (Toxoplasma gondii, UniProt A0A7J6KCY2).
T1 construct: gene TGRH88_014830; Vps10 subdomain (160-667 aa) of 1033-aa sortilin; GST-tagged from pGEX-4T-1, E. coli BL21 (DE3); tag kept; biotinylated with NHS-PEG12-biotin
The assay can be described thus: bio-layer interferometry, biotinylated GST-Vps10 on SSA sensor. The class given is binding. The conditions noted are these: AF38469 at 100-500 nM diluted in DMSO; PBS, DMSO as negative control. For orientation: In BLI a coated tip is dipped into the sample, and binding shifts an interference pattern.

In the next assay the target is T2, His-TgROP9 (Toxoplasma gondii, UniProt S8F3X8 1-353).
T2 chain: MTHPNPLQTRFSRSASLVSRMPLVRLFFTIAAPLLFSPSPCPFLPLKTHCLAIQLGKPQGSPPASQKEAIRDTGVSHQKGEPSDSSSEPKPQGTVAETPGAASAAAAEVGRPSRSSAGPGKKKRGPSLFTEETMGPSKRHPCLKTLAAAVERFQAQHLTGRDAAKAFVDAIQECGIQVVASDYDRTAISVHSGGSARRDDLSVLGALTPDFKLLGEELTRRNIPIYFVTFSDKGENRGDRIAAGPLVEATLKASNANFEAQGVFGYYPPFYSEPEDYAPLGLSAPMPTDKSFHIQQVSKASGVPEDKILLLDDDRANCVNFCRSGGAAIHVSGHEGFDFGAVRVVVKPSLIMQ
Description: BLI.

Another assay has as its target T3, His-TgSAG2 (Toxoplasma gondii).
T3 chain: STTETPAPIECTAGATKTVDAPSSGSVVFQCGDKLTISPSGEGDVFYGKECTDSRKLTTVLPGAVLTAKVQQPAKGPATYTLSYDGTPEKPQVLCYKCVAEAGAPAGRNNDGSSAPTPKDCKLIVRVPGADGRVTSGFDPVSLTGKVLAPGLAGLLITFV
The assay can be described thus: BLI.

The target of a further assay is T4, His-TgMIC3 (Toxoplasma gondii, UniProt A0A7J6KDB0 27-383).
T4 chain: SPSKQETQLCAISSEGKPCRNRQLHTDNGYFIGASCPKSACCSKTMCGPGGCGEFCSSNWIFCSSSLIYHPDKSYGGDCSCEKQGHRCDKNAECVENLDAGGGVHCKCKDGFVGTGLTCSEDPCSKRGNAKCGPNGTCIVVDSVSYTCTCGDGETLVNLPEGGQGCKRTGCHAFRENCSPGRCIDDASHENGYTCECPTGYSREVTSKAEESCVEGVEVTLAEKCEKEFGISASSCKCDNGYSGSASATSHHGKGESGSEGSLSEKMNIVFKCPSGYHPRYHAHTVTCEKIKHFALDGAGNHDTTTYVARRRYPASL
Description: BLI.

In the case of `Cc1cccc(NC(=O)c2ccc(C(F)(F)F)cc2C(=O)O)n1` [AF38469], the “bio-layer interferometry, biotinylated GST-Vps10 on SSA sensor” value in assay [1] is on record as “only the Vps10 subdomain could bind to AF38469 with high affinity”.

B1: GST-tagged recombinant sortilin protein (natural protein)
chain: MYTSRTPHGGLRRWPLSRSSVSAVASRVLSRSVAFHRRLASFLLSRKKTPLCALSSRPSGLQASSGVQTVTMAHSFARGRPPAAGRTLAVFLAFLAVLSPSLLPEFFSEDAQKRESSVLVANAASYANKKVSVSEVSFDSHIEDIQWCGTDHRTILLKTRRGRLYRSQDGGKSWTEITDLLKSSEAATGTVAVDSIIVSPVDKRVVLIVGSKRNHFISEDSAATFRRLKYKNTIHNFHFHPTRPKYAILSTWTDACYSGSGTASRAQSQQDCNHQLFYTRDLGRSFKLVADYVVQFSWGDKKLGNTDHIFFTQHRGRSGDQPRYGGWSKNVDLMYTPDFGATITRLVYRGNKFLLSNGYFFVAKVKDAAKQTVSLLVSTDGGKSFQMAKLPVEIEERSYTVLDTSEDAIMLHVNHGHDNKGDTGNVYISDAKGVRYSLSLPNNIRTSTGECEFDKVLSLEGVYLANFKDSVDSSASVDGGQQGDLEKLEEEIEEEAEGVQVDLEKKHKSVATRSRQEEVIRTVISFDKGGVWSYLKAPKVDSRGQKIDCPPDRCWLHLNGITRFSDFAPFYSVENAVGIIMGTGNVGSYLRPEKDEANTYLSRDGGVSWIEAHKGAFIYEMGDHGGLLVMADDTKKTNQVVFSWNEGQSWYDFELGAAPLFVDNIVIEPNASSVEFLLYGKREQDSAGVLFHLDFNALNQQQCKGIWAADSVSSDYETWSPSDGRAGGERCILGKHITYTRRKQTSECFNGRDFDRPKVSKVCPCTMEDYECEFGFTRAIGSTQCVATDAAAAAAATATGLAQFADESDAAAAAACTSSSFFYTSAYRKVPGDVCEGGWMPEKVAVPCPAHSPVSRGGKTVLLLLLFIVVVMVVINYLAKTGRLKKFFRNAGFDSFANVSYGLVGASAGGPGGWLDQEAGESRRGEELGERSKYEPELGFIEAEQDENEEDAPTLMNYGNAAGGQRTSGMSSRSPKPTEDFELDDSRPLFPSHVSSRETQGSSGLHPRSTSTENEPIPRLAPPRFDEDNVELL
In general, Kd refers to a measure of binding affinity in units of concentration. A higher Kd goes with lower affinity. As for B1, the values for the equilibrium dissociation constant (Kd) with His-TgROP9, in the assay with His-TgSAG2 and in the assay with His-TgMIC3 were 0.963 nM, 915 nM and 0.847 nM, respectively.

Source of the values: article PMC10910794, “Toxoplasma sortilin interacts with secretory proteins and it is critical for parasite proliferation” (Parasites & Vectors, 2024).
